The test deals with T1, human mesothelin (human, UniProt Q13421 296-580, limits assumed).
T1 construct: also called MSLN
The test is described as follows: method not stated; affinity given in parentheses for the binder.

These results are taken from patent publication US20200362306A1 (published 2020).

The term Kd denotes the equilibrium constant for the complex coming apart.

T1 sequence (Q13421 other isoform, or with tags, fused parts or gaps limits assumed): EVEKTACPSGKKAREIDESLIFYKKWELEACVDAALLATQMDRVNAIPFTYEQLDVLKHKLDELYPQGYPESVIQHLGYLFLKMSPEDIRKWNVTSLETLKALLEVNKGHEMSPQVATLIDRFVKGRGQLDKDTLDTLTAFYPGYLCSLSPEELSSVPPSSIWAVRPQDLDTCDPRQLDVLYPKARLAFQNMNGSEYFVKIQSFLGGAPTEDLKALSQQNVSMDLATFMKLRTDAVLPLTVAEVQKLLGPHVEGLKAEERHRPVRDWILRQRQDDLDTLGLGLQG

B1: Single domain anti-MSLN binder 4 (SD4) (VHH)
VHH: EVQLVESGGGLVQPGGSLRLSCAASGSTSSINTMYWYRQAPGKERELVAFISSGGSTNVRDSVKGRFTISRDNSKNTLYLQMNSLRAEDTAVYYCNTYIPYGGTLHDFWGQGTLVTVSS
notes: also called anti-MSLN-SD4
In the case of B1, the equilibrium dissociation constant (Kd) stood at 6 nM.

B2: Single domain anti-MSLN binder 1 (SD1) (VHH)
VHH: EVQLVESGGGLVQPGGSLRLSCAASGGDWSANFMYWYRQAPGKQRELVARISGRGVVDYVESVKGRFTISRDNSKNTLYLQMNSLRAEDTAVYYCAVASYWGQGTLVTVSS
notes: also called anti-MSLN-SD1
With B2, the equilibrium dissociation constant (Kd) was determined as 25 nM.
